# Test results as given in publication PMC11090809.
# Biological target: empty AAVHSC-15 capsid (OXBS1-E fraction of AAV-OXBS1) (AAVHSC-15 (Clade F adeno-associated virus))
# Test: charge detection mass spectrometry (CDMS); OXBS1-E fraction sprayed into a CDMS instrument (Megadalton Solutions); single ions trapped, charge detected, masses calculated; n = 1
substance,measurement,value
empty AAVHSC-15 capsid (OXBS1-E fraction of AAV-OXBS1) (complex),% relative abundance of the dimer peak,20%
same,stoichiometry N,2
